From patent US7173007

Tested on: recombinant human cathelin-like protein (cathelin-like domain of hCAP18, residues 31-131), after removal of the N-terminal tag with enterokinase
Sequence (chain, as listed by the source): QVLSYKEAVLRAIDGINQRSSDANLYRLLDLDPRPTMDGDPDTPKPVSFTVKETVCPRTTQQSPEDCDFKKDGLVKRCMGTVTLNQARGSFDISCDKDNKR

human liver cathepsin L (Calbiochem), sequence (chain, as listed by the source): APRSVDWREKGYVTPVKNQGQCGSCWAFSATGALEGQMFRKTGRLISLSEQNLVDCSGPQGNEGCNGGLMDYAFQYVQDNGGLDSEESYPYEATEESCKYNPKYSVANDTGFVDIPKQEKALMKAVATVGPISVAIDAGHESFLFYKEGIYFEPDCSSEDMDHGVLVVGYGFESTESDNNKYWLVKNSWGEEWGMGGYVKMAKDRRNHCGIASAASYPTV

human liver cathepsin L (Calbiochem) was tested, and the “hydrolysis of Z-Phe-Arg-AMC by cathepsin L alone and with cathelin-like protein” value was “Data demonstrate inhibition of cathepsin L by the addition of cathelin-like recombinant protein” and the “slope of fluorescence generation (Z-Phe-Arg-AMC hydrolysis) with cathelin-like protein; cathepsin L alone gave 1.31” value was “slope=1.31 vs 0.71, respectively”.
